Where two headings read alike, the source gives them in different places.
Experiments:
[1] = target: T1, PD-1 (UniProt Q15116 25-167, limits assumed); assay: ELISA, conjugate vs WT antibody
[2] = target: T1, PD-1; assay: ELISA, conjugate vs WT antibody; remark: listed apart in the source
[3] = target: T2, CTLA-4 (UniProt P16410 36-162, limits assumed); assay: ELISA, OD mutant/OD WT; B=70-90%
[4] = target: T2, CTLA-4; assay: ELISA, OD mutant/OD WT; B=70-90%; remark: listed apart in the source
[5] = target: T2, CTLA-4; assay: ELISA, OD mutant/OD WT; ↓=less than 70%
[6] = target: T3, CTLA-4 (UniProt P16410 36-162, limits assumed); assay: ELISA; S47 on the Cys
T3 construct: also called CTLA-4 protein

[7] = target: T3, CTLA-4; assay: ELISA; R4-1 on the Cys
[8] = target: T3, CTLA-4; assay: ELISA; R4-1 on the Cys; remark: listed apart in the source
[9] = target: T4, human CTLA-4 Fc fusion protein (R&D systems) (human, UniProt P16410 37-162); assay: ELISA, fold change of EC50; S47 on the Cys
T4 construct: bought

[10] = target: T4, human CTLA-4 Fc fusion protein (R&D …); assay: receptor blocking ELISA against biotinylated B7-1 or B7-2; TMEAbody (S47 conjugate)
[11] = target: CD28 (UniProt P10747 19-152, limits assumed); assay: ELISA, conjugate vs WT antibody

T1 sequence (Q15116 25-167 limits assumed): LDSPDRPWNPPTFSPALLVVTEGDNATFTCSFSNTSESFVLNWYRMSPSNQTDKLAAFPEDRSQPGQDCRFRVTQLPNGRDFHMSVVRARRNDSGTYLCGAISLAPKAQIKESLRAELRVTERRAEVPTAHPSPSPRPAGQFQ
T4 sequence (P16410 37-162 limits assumed): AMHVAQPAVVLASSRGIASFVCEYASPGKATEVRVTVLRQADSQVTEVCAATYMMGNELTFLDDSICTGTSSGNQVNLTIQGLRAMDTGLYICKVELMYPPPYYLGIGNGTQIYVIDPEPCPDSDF

B1: anti-PD-1 antibody 1 heavy chain K63C-R4-7 (antibody, human IgG4 S228P, kappa, V domains shown)
VH: QVQLVQSGVEVKKPGASVKVSCKASGYTFTNYYMYWVRQAPGQGLEWMGGINPSNGGTNFNECFKNRVTLTTDSSTTTAYMELKSLQFDDTAVYYCARRDYRFDMGFDYWGQGTTVTVSS
VL: EIVLTQSPATLSLSPGERATLSCRASKGVSTSGYSYLHWYQQKPGQAPRLLIYLASYLESGVPARFSGSGSGTDFTLTISSLEPEDFAVYYCQHSRDLPLTFGGGTKVEIKR
modifications: R4-7 on Cys 63
binding activity (% of WT) [1]: 95.2%

B2: anti-PD-1 antibody 1 heavy chain S54C-R4-1 (antibody, human IgG4 S228P, kappa, V domains shown)
VH: QVQLVQSGVEVKKPGASVKVSCKASGYTFTNYYMYWVRQAPGQGLEWMGGINPCNGGTNFNEKFKNRVTLTTDSSTTTAYMELKSLQFDDTAVYYCARRDYRFDMGFDYWGQGTTVTVSS
VL: EIVLTQSPATLSLSPGERATLSCRASKGVSTSGYSYLHWYQQKPGQAPRLLIYLASYLESGVPARFSGSGSGTDFTLTISSLEPEDFAVYYCQHSRDLPLTFGGGTKVEIKR
modifications: R4-1 on Cys 54
binding activity (% of WT) [1]: 104%

B3: anti-PD-1 antibody 1 heavy chain T30C-R4-1 (antibody, human IgG4 S228P, kappa, V domains shown)
VH: QVQLVQSGVEVKKPGASVKVSCKASGYTFCNYYMYWVRQAPGQGLEWMGGINPSNGGTNFNEKFKNRVTLTTDSSTTTAYMELKSLQFDDTAVYYCARRDYRFDMGFDYWGQGTTVTVSS
VL: EIVLTQSPATLSLSPGERATLSCRASKGVSTSGYSYLHWYQQKPGQAPRLLIYLASYLESGVPARFSGSGSGTDFTLTISSLEPEDFAVYYCQHSRDLPLTFGGGTKVEIKR
modifications: R4-1 on Cys 30
binding activity (% of WT) [1]: 91.2%

B4: anti-PD-1 antibody 1 heavy chain T58C-R4-1 (antibody, human IgG4 S228P, kappa, V domains shown)
VH: QVQLVQSGVEVKKPGASVKVSCKASGYTFTNYYMYWVRQAPGQGLEWMGGINPSNGGCNFNEKFKNRVTLTTDSSTTTAYMELKSLQFDDTAVYYCARRDYRFDMGFDYWGQGTTVTVSS
VL: EIVLTQSPATLSLSPGERATLSCRASKGVSTSGYSYLHWYQQKPGQAPRLLIYLASYLESGVPARFSGSGSGTDFTLTISSLEPEDFAVYYCQHSRDLPLTFGGGTKVEIKR
modifications: R4-1 on Cys 58
binding activity (% of WT) [1]: 93.9%

B5: anti-PD-1 antibody 1 light chain S30C-R4-1 (antibody, human IgG4 S228P, kappa, V domains shown)
VH: QVQLVQSGVEVKKPGASVKVSCKASGYTFTNYYMYWVRQAPGQGLEWMGGINPSNGGTNFNEKFKNRVTLTTDSSTTTAYMELKSLQFDDTAVYYCARRDYRFDMGFDYWGQGTTVTVSS
VL: EIVLTQSPATLSLSPGERATLSCRASKGVCTSGYSYLHWYQQKPGQAPRLLIYLASYLESGVPARFSGSGSGTDFTLTISSLEPEDFAVYYCQHSRDLPLTFGGGTKVEIKR
modifications: R4-1 on Cys 30
binding activity (% of WT) [2]: 86.9%

B6: anti-PD-1 antibody 1 light chain S35C-R4-1 (antibody, human IgG4 S228P, kappa, V domains shown)
VH: QVQLVQSGVEVKKPGASVKVSCKASGYTFTNYYMYWVRQAPGQGLEWMGGINPSNGGTNFNEKFKNRVTLTTDSSTTTAYMELKSLQFDDTAVYYCARRDYRFDMGFDYWGQGTTVTVSS
VL: EIVLTQSPATLSLSPGERATLSCRASKGVSTSGYCYLHWYQQKPGQAPRLLIYLASYLESGVPARFSGSGSGTDFTLTISSLEPEDFAVYYCQHSRDLPLTFGGGTKVEIKR
modifications: R4-1 on Cys 35
binding activity (% of WT) [2]: 88.3%

B7: anti-PD-1 antibody 1 light chain S60C-R4-1 (antibody, human IgG4 S228P, kappa, V domains shown)
VH: QVQLVQSGVEVKKPGASVKVSCKASGYTFTNYYMYWVRQAPGQGLEWMGGINPSNGGTNFNEKFKNRVTLTTDSSTTTAYMELKSLQFDDTAVYYCARRDYRFDMGFDYWGQGTTVTVSS
VL: EIVLTQSPATLSLSPGERATLSCRASKGVSTSGYSYLHWYQQKPGQAPRLLIYLASYLECGVPARFSGSGSGTDFTLTISSLEPEDFAVYYCQHSRDLPLTFGGGTKVEIKR
modifications: R4-1 on Cys 60
binding activity (% of WT) [2]: 89.4%

B8: anti-PD-1 antibody 1 light chain T31C-R4-1 (antibody, human IgG4 S228P, kappa, V domains shown)
VH: QVQLVQSGVEVKKPGASVKVSCKASGYTFTNYYMYWVRQAPGQGLEWMGGINPSNGGTNFNEKFKNRVTLTTDSSTTTAYMELKSLQFDDTAVYYCARRDYRFDMGFDYWGQGTTVTVSS
VL: EIVLTQSPATLSLSPGERATLSCRASKGVSCSGYSYLHWYQQKPGQAPRLLIYLASYLESGVPARFSGSGSGTDFTLTISSLEPEDFAVYYCQHSRDLPLTFGGGTKVEIKR
modifications: R4-1 on Cys 31
binding activity (% of WT) [2]: 84.4%

B9: anti-CTLA-4 antibody heavy chain D62C (antibody, human IgG1, kappa, V domains shown)
VH: QVQLVESGGGVVQPGRSLRLSCAASGFTFSSYTMHWVRQAPGKGLEWVTFISYDGNNKYYACSVKGRFTISRDNSKNTLYLQMNSLRAEDTAIYYCARTGWLGPFDYWGQGTLVTVSS
VL: not shown
binding activity (OD after mutation/OD wild type) [3]: 70 to 90%

B10: anti-CTLA-4 antibody heavy chain I51C (antibody, human IgG1, kappa, V domains shown)
VH: QVQLVESGGGVVQPGRSLRLSCAASGFTFSSYTMHWVRQAPGKGLEWVTFCSYDGNNKYYADSVKGRFTISRDNSKNTLYLQMNSLRAEDTAIYYCARTGWLGPFDYWGQGTLVTVSS
VL: not shown
binding activity (OD after mutation/OD wild type) [3]: 70 to 90%

B11: anti-CTLA-4 antibody heavy chain Y32C (antibody, human IgG1, kappa, V domains shown)
VH: QVQLVESGGGVVQPGRSLRLSCAASGFTFSSCTMHWVRQAPGKGLEWVTFISYDGNNKYYADSVKGRFTISRDNSKNTLYLQMNSLRAEDTAIYYCARTGWLGPFDYWGQGTLVTVSS
VL: not shown
binding activity (OD after mutation/OD wild type) [3]: 70 to 90%

B12: anti-CTLA-4 antibody heavy chain Y107C (antibody, human IgG1, kappa, V domains shown)
VH: QVQLVESGGGVVQPGRSLRLSCAASGFTFSSYTMHWVRQAPGKGLEWVTFISYDGNNKYYADSVKGRFTISRDNSKNTLYLQMNSLRAEDTAIYYCARTGWLGPFDCWGQGTLVTVSS
VL: not shown
binding activity (OD after mutation/OD wild type) [3]: 70 to 90%

B13: anti-CTLA-4 antibody light chain A35C (antibody, human IgG1, kappa, V domains shown)
VH: QVQLVESGGGVVQPGRSLRLSCAASGFTFSSYTMHWVRQAPGKGLEWVTFISYDGNNKYYADSVKGRFTISRDNSKNTLYLQMNSLRAEDTAIYYCARTGWLGPFDYWGQGTLVTVSS
VL: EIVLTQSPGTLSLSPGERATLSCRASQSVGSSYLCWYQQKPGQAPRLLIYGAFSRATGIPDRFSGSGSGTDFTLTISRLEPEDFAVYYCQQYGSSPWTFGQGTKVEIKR
binding activity (OD after mutation/OD wild type) [4]: 70 to 90%

B14: anti-CTLA-4 antibody light chain A52C (antibody, human IgG1, kappa, V domains shown)
VH: QVQLVESGGGVVQPGRSLRLSCAASGFTFSSYTMHWVRQAPGKGLEWVTFISYDGNNKYYADSVKGRFTISRDNSKNTLYLQMNSLRAEDTAIYYCARTGWLGPFDYWGQGTLVTVSS
VL: not shown
binding activity vs wild type [5]: < 70%

B15: anti-CTLA-4 antibody light chain A56C (antibody, human IgG1, kappa, V domains shown)
VH: QVQLVESGGGVVQPGRSLRLSCAASGFTFSSYTMHWVRQAPGKGLEWVTFISYDGNNKYYADSVKGRFTISRDNSKNTLYLQMNSLRAEDTAIYYCARTGWLGPFDYWGQGTLVTVSS
VL: not shown
binding activity (OD after mutation/OD wild type) [4]: 70 to 90%

B16: anti-CTLA-4 antibody light chain L34C (antibody, human IgG1, kappa, V domains shown)
VH: QVQLVESGGGVVQPGRSLRLSCAASGFTFSSYTMHWVRQAPGKGLEWVTFISYDGNNKYYADSVKGRFTISRDNSKNTLYLQMNSLRAEDTAIYYCARTGWLGPFDYWGQGTLVTVSS
VL: not shown
binding activity (OD after mutation/OD wild type) [4]: 70 to 90%

B17: anti-CTLA-4 antibody light chain T98C (antibody, human IgG1, kappa, V domains shown)
VH: QVQLVESGGGVVQPGRSLRLSCAASGFTFSSYTMHWVRQAPGKGLEWVTFISYDGNNKYYADSVKGRFTISRDNSKNTLYLQMNSLRAEDTAIYYCARTGWLGPFDYWGQGTLVTVSS
VL: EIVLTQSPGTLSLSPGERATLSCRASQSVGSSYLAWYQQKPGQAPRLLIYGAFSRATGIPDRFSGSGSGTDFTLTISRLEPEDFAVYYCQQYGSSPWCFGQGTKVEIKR
binding activity (OD after mutation/OD wild type) [4]: 70 to 90%

B18: anti-CTLA-4 antibody light chain Y33C (antibody, human IgG1, kappa, V domains shown)
VH: QVQLVESGGGVVQPGRSLRLSCAASGFTFSSYTMHWVRQAPGKGLEWVTFISYDGNNKYYADSVKGRFTISRDNSKNTLYLQMNSLRAEDTAIYYCARTGWLGPFDYWGQGTLVTVSS
VL: not shown
binding activity vs wild type [5]: < 70%

B19: anti-CTLA-4 antibody light chain Y92C (antibody, human IgG1, kappa, V domains shown)
VH: QVQLVESGGGVVQPGRSLRLSCAASGFTFSSYTMHWVRQAPGKGLEWVTFISYDGNNKYYADSVKGRFTISRDNSKNTLYLQMNSLRAEDTAIYYCARTGWLGPFDYWGQGTLVTVSS
VL: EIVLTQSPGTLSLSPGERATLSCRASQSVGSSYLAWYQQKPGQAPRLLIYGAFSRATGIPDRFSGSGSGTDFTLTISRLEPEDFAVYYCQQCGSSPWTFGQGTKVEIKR
binding activity vs wild type [5]: < 70%

B20: anti-PD-1 antibody 1 light chain G28C-R4-5 (antibody, human IgG4 S228P, kappa, V domains shown)
VH: QVQLVQSGVEVKKPGASVKVSCKASGYTFTNYYMYWVRQAPGQGLEWMGGINPSNGGTNFNEKFKNRVTLTTDSSTTTAYMELKSLQFDDTAVYYCARRDYRFDMGFDYWGQGTTVTVSS
VL: EIVLTQSPATLSLSPGERATLSCRASKCVSTSGYSYLHWYQQKPGQAPRLLIYLASYLESGVPARFSGSGSGTDFTLTISSLEPEDFAVYYCQHSRDLPLTFGGGTKVEIKR
modifications: R4-5 on Cys 28
binding activity (% of WT) [2]: 108%

B21: Ipi-se009 (Ipilimumab light chain Ser54Cys, Kabat L53) (antibody, human IgG1, kappa, V domains shown)
VH: QVQLVESGGGVVQPGRSLRLSCAASGFTFSSYTMHWVRQAPGKGLEWVTFISYDGNNKYYADSVKGRFTISRDNSKNTLYLQMNSLRAEDTAIYYCARTGWLGPFDYWGQGTLVTVSS
VL: not shown
modifications: Cys at 54 (Kabat L53) carries the group named in the row
Activity after S47 (40 kD) blocking [6]: 5%
Binding activity [7]: 98%
Binding activity [8]: 98%
Blocking efficiency after conjugation with S47 [9]: 22 fold
Blocking efficiency (RBA), fold change of IC50 [10]: 18 fold

B22: anti-CD28 antibody light chain G99C-R4-1 (antibody, human IgG4, kappa, V domains shown)
VH: QVQLVQSGAEVKKPGASVKVSCKASGYTFTSYYIHWVRQAPGQGLEWIGCIYPGNVNTNYNEKFKDRATLTVDTSISTAYMELSRLRSDDTAVYFCTRSHYGLDWNFDVWGQGTTVTVSS
VL: not shown
modifications: R4-1 on Cys 99
binding activity (% of WT) [11]: 96.6%

B23: anti-CD28 antibody light chain T93C-R4-1 (antibody, human IgG4, kappa, V domains shown)
VH: QVQLVQSGAEVKKPGASVKVSCKASGYTFTSYYIHWVRQAPGQGLEWIGCIYPGNVNTNYNEKFKDRATLTVDTSISTAYMELSRLRSDDTAVYFCTRSHYGLDWNFDVWGQGTTVTVSS
VL: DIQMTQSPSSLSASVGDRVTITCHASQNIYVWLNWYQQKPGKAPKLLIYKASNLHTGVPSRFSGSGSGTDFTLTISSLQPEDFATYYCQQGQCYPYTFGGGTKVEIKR
modifications: R4-1 on Cys 93
binding activity (% of WT) [11]: 87%

From US20230158141A1 (YAFEI SHANGHAI BIOLOG MEDICINE SCIENCE AND TECHNOLOGY, published 2023)
